# Test results taken from US9505841B2, “Use of an anti-Ang2 antibody” (Samsung Electronics Co., Ltd., priority 2013, dated 2016).
# Key:
# [1] = tested on: human colorectal cancer cell line Colo205; experiment: Colo205 colorectal cancer xenograft tumor growth; format: in vivo, mouse; conditions: BALB/c nude mice; 10 mg/kg intraperitoneal twice a week
# Method: To see the tumor growth inhibitory effects of Ang2 antibody, a colorectal cancer xenograft model using a human colorectal cancer cell line Colo205 (ATCC) was employed.
# The Colo205 cell line was cultured using 10% FBS (Gibco)-supplemented RPMI-1640 (Gibco) media. 5×10^5 of Colo205 cell line were re-suspended in 100 ul of serum-free media and then subcutaneously injected into anesthetic 4˜5-week-old BALB/c nude mice (Shanghai SLAC Laboratory Animal Co. Ltd.) anesthetized with 1-2% isoflurane. When the size of tumors reached 100˜200 mm^3, anti-Ang2 antibody (10D6) was injected at the concentration of 10 mg/kg via an intraperitoneal injection twice a week and the size of the tumors was measured.
# The size of tumor (V) was calculated using the following formula: V=(length×width^2)/2
# [2] = tested on: HUVEC monolayer; experiment: In vitro vascular permeability assay (FITC-dextran); format: cell-based, human; conditions: 200 ng/ml Ang1 alone or 200 ng/ml Ang2 + 1 ug/ml 10D6
# Method: To see the cell permeability suppression effects of antibody 10D6, in vitro vascular permeability assay kit (Millipore) was employed. HUVEC (ATCC) cells (5×10^4) were added to a collagen-coated transwell and cultured for 2 days to prepare a confluent monolayer. It was treated with 200 ng/ml of Ang2 or 200 ng/ml of Ang1 (R&D systems) alone, or 200 ng/ml of Ang2 and 1 ug/ml of antibody 10D6, pre-incubated for 30 min. and then, treated with 100 ng/ml of LPS (Lipopolysaccharide; Sigma) or 100 ng/ml TNF-a (R&D systems) to induce the permeability of HUVEC monolayer. LPS or TNF-a weakens binding between HUVEC cells to form a gap therebetween, thereby increasing the migration of materials in the HUVEC monolayer. After 6-hour incubation for the LPS treatment group and 22-hour incubation for the TNF-a group, the upper chamber was treated with FITC-dextran (Millipore) and incubated for 18 min. The fluorescence of FITC-dextran migrated to the lower chamber was measured at 485/535 nm (Ex/Em) setting using an Envision 2104 multilabel Reader (Perkinelmer).
# [3] = tested on: ICAM-1; experiment: LPS-induced mRNA expression of ICAM-1 in HUVEC (qPCR); format: cell-based, human; conditions: 100 ng/ml LPS 5 hours, 0.2 ug/ml Ang1 or 0.1 ug/ml Ang2 + 0.5 ug/ml antibody
# Method: To see anti-inflammatory effects by antibody 10D6, HUVEC (ATCC) cells (4×10^5) were treated with Ang2 alone or Ang2 together with antibody 10D6, and a group in which Ang1 and Ang2 (R&D systems) and Regeneron Co. antibody (RG antibody) were co-treated was included as a control group. HUVEC cells were treated with 0.2 ug/ml of Ang1, 0.1 ug/ml of Ang2, or 0.1 ug/ml of Ang2 and 0.5 ug/ml of antibody, respectively and after 30-min. pre-incubation, they were treated with 100 ng/ml of LPS (Sigma) to induce inflammatory response and incubated for 5 hours.
# The degree of the inflammatory response was identified by measuring the mRNA expression degree of an inflammatory adhesion substance (ICAM-1, E-selectin). The cells were washed using PBS, RNA was extracted using RNeasy Mini kit (Qiagen), and among them, 2 ug of RNA was synthesized into cDNA using Transcriptor First Strand cDNA synthesis kit (Roche). qPCR reaction was performed using RT2 SYBR™ Green Mastermix (Qiagen) and LightCycler™ 480 Real-Time PCR System (Roche). As an internal control for calibrating the amount of RNA in a sample, HPRT1 was used, and qPCR complied with the following procedures with regard to all the primers.
# Step 1: 95° C., 10 min; Step 2 (45 cycles): Step 2-1: 95° C., 15 sec; Step 2-2: 60° C., 1 min; Step 3: 65° C., 15 sec; Step 4: 95° C., continuous (every 20° C.); Step 6: 40° C., 10 sec.
# [4] = tested on: Tie2 receptor; experiment: Tie2 phosphorylation in HUVEC cells (immunoprecipitation/immunoblot); format: cell-based, human
# Method: As Ang2 induces a change in vascular endothelial cells by binding to a Tie-2 receptor expressed in the vascular endothelial cells to induce the phosphorylation of the receptor and activate it, a test for analyzing an influence of the anti-Ang2 antibody on Tie2 phosphorylation was conducted using a cell-based assay.
# For this, HUVEC (ATCC) cells (1×10^6) were cultured in a 100 mm culture dish using EGM-2 (Lonza) media at 37° C. and when they reached 80˜90% confluency, the media were replaced with serum-free media and cultured at 37° C. for 6 to 16 hours. The dish was washed once with PBS and after the replacement with […] sodium orthovanadate (Sigma)-mixed serum free media (Lonza), they were further cultured for 10 min. […]
# In addition, referring to the above method, when 60 nM of antibody 10D6 and Ang2 were treated, the phosphorylation level of Tie2 was measured and compared with the case of treating a control antibody (anti-Ang2 antibody (Regeneron) which has MOA of inhibiting binding between Ang2 and Tie2; represented as ‘RG antibody’). After treating with the antibody (10D6 or RG), the blot band density of pTyr and Tie2 was measured using ImageJ software and pTyr/Tie2 ratio was calculated.
molecule,measurement,setting,value
"10D6: mouse anti-Ang2 monoclonal antibody from hybridoma KCLRF-BP-00295; heavy chain variable region SEQ ID NO: 7, light chain variable region SEQ ID NO: 9 (antibody, V domains shown, Synthetic (Heavy chain variable region of an anti-Ang2 antibody); Synthetic (Light chain variable region of anti-Ang2 antibody)) VH: DVQLQESGPGLVKPSQSLSLTCTVTGYSITSDYAWNWIRQFPGNKLEWMGYINYSGNTDYNPSLKSRSSITRDTSKNQFFLQLNSVTTGDTATYYCARGNFEGAMDYWGQGTSVTVSS VL: SIVMTQTPKFLLVSAGDRVTITCKASQSVSNDVAWYQQKPGQSPKLLIYYASNRYPGVPDRFTGSGYGTDFTFTISTVQAEDLAVYFCQQDYSSPWTFGGGTKLEIK",tumor growth in Colo205 xenograft,[1],inhibited the growth of colorectal cancer
same,vascular permeability increased by LPS,"[2]; 100 ng/ml LPS, 6 hour",decreased to the control level
same,vascular permeability increased by TNF-a,"[2]; 100 ng/ml TNF-a, 22 hour",decreased to the control level
same,expression of ICAM-1 induced by LPS,[3],remarkably suppressed
same,"Tie2 phosphorylation effect, fold higher than control antibody RG",[4]; 60 nM antibody and Ang2,about 8.6 fold
same,phosphorylation of Tie2 compared to Ang2 treated alone,"[4]; antibody 600~0.06 nM with 40 nM Ang2, every antibody concentration tested",more strongly induced
